B1: 1D05 (antibody, V domains shown)
VH: EVQLVESGGGLVQPGRSLRLSCAASGFTFDDYAMHWVRQVPGKGLEWVSGISWIRTGIGYADSVKGRFTIFRDNAKNSLYLQMNSLRAEDTALYYCAKDMKGSGTYGGWFDTWGQGTLVTVSS
VL: not shown
notes: kappa light chain; also called clone 1D05; anti-PD-L1 antibody 1D05
B2: 413G05 (antibody, human IgG1, V domains shown)
VH: QVQLVESGGGLVKPGGSLRLSCAASGFTFSDYYMSWIRQVPGKGLEWVSYISTSGSTIYYADSVKGRFTISRDNAKNSLYLQMNSLRAEDAAVYHCARGITGTNFYHYGLGVWGQGTTVTVSS
VL: DIQMTQSPSSVSASVGDRVTITCRASQGINSWLAWYQQKPGKAPKLLIYAASTLQSGVPSRFSGSGSGADFTLTISSLQPEDFATYYCQQVNSFPLTFGGGTKVEIK
B3: 84G09 (antibody, human IgG1, V domains shown)
VH: EVQLVESGGGLVQPGRSLRLSCAASGFTFDDYAMHWVRQTPGKGLEWVSGISWKSNIIGYADSVKGRFTISRDNAKNSLYLQMNSLRAEDTALYYCARDITGSGSYGWFDPWGQGTLVTVSS
VL: DIQMTQSPSSLSASVGDRVTITCRASQSISSYLNWYQQKPGKAPKPLIYVASSLQSGVPSSFSGSGSGTDFTLTISSLQPEDFATYYCQQSYSNPITFGQGTRLEIK
notes: kappa light chain; also called clone 84G09

Columns and labels:
PD-L1-Fc (R&D Systems) = biological target: T1, PD-L1-Fc (R&D Systems) (UniProt Q9NZQ7 19-239); assay: plate ELISA/DELFIA (Example 5d): biotinylated antibody on plate-bound PD-L1-Fc, streptavidin-Eu, TRF at 615 nm
T1 construct: not shown: Fc part of the bought fusion protein, not described
Protocol: Excess protein was removed by washing with PBS-Tween (0.1% v/v) and the wells were blocked with 250 μL/well Pierce Protein Free Blocking Buffer (Thermo, 37572) for 1 hour, after which plates were washed as described previously. […] 100 μL each antibody dilution was added to the plates in duplicate and incubated for 1 hour at room temperature, before washing as stated above. Antibody binding was detected using streptavidin labelled Europium (Perkin Elmer) diluted 1/1000 in DELFIA Assay buffer (Perkin Elmer). Plates were washed with TBS (Tris buffered saline)-Tween (0.1% v/v) and 50 μL/well of DELFIA Enhancement solution (Perkin Elmer) was added to the plate. Time-resolved fluorescence was measured at 615 nm on an Envision plate reader (PerkinElmer).

[1] = biological target: T2, hPD-L1-his (in-house generated recombinant human PD-L1, his-tagged) (human, UniProt Q9NZQ7 19-238, limits assumed, biotinylated in the ELISA and AlphaScreen assays (site not stated)); assay: SPR (ProteOn), anti-human Fc capture, 25 C
T2 construct: also called biotinylated hPD-L1-his; biotinylated His-PD-L1
Protocol: Label-free surface plasmon resonance (SPR) analysis was carried out on the ProteOn XPR36 (BioRad) array SPR machine. […] The data was analysed using the 1:1 model inherent to the ProteOn XPR36 analysis software.
SPR analysis was performed as per Example 4 with the following amendments: analysis was performed at 37° C. as well as 25° C. to increase the stringency of the assay.

T1 sequence (Q9NZQ7 19-239 limits assumed): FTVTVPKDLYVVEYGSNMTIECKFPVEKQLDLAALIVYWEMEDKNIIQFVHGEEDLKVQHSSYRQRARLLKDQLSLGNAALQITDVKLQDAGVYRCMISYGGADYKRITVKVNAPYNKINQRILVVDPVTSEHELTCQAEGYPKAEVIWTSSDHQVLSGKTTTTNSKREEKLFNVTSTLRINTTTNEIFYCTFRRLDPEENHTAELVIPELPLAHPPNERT
T2 sequence (Q9NZQ7 19-238 limits assumed): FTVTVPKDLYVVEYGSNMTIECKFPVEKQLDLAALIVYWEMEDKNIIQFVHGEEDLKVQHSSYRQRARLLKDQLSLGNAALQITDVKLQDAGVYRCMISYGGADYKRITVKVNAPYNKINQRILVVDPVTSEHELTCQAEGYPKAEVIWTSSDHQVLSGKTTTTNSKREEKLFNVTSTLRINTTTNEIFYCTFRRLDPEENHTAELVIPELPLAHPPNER

Row | Binder | EC50 (read off the curve) (PD-L1-Fc (R&D Systems)) [nM] | koff [1] [s⁻¹]
1 | B1 | ~0.4 | 
2 | B2 |  | 6.23e-05
3 | B3 | ~0.4 | 

Source: patent publication US20240360218A1 (KYMAB, published 2024)
